Laboratory results published in article PMC9555771 (Science Advances, 2022).

What was measured:
[1] = target: T1, MsbA (WT), purified, His tag cleaved (Escherichia coli K-12); test: cryo-EM structure
T1 chain: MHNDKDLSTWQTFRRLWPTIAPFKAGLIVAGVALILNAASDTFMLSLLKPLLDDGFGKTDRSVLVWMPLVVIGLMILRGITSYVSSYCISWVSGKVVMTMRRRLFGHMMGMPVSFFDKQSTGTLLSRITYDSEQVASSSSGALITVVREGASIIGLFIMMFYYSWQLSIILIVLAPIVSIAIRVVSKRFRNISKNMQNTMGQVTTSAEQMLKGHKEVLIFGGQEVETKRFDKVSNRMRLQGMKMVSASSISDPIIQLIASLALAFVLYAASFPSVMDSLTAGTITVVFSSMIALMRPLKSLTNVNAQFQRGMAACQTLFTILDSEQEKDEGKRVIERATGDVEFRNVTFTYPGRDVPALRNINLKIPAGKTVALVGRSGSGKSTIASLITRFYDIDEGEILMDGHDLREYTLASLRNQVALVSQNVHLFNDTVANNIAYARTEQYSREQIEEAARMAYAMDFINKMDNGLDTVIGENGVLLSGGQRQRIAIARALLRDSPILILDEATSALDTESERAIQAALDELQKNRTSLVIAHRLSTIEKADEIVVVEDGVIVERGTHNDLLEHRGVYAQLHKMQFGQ

[2] = target: Avi-tagged full-length MsbA, biotinylated, detergent-solubilized (Escherichia coli (K-12 sequence), UniProt P60752, biotin on the Avi-tag (enzymatic, BirA)); test: grating-coupled interferometry
[3] = target: MsbA (WT), overexpressed in E. coli membranes and cells (Escherichia coli K-12, UniProt P60752); test: DEER

Measured: binding result

B1: Nb_MsbA#1_A60C labeled with Gd-DOTA (VHH)
VHH: QMQLVESGGGLVQAGGSLRLSCAVSGSIFSIITLAWYRQAPGKPRENVATITRGSRTSYCDSVKGRFTISKDNAKSTVYLQMNKLKPEDTADYYCNAEGPAGYWGQGTPVTVS
binds: all assays above

B2: Nb_MsbA#1_T68C labeled with Gd-DOTA (VHH)
VHH: QMQLVESGGGLVQAGGSLRLSCAVSGSIFSIITLAWYRQAPGKPRENVATITRGSRTSYADSVKGRFCISKDNAKSTVYLQMNKLKPEDTADYYCNAEGPAGYWGQGTPVTVS
binds: all assays above
